Source: PMC5663463 (Protein expression and purification, 2012)

B1: native (cleaved) Staphylococcus aureus dihydroorotase (PyrC) (enzyme)
chain: GPMKLIKNGKVLQNGELQQADILIDGKVIKQIAPAIEPSNGVDIIDAKGHFVSPGFVDVHVHLREPGGEYKETIETGTKAAARGGFTTVCPMPNTRPVPDSVEHFEALQKLIDDNAQVRVLPYASITTRQLGKELVDFPALVKEGAFAFTDDGVGVQTASMMYEGMIEAAKVNKAIVAHCEDNSLIYGGAMHEGKRSKELGIPGIPNICESVQIARDVLLAEAAGCHYHVCHVSTKESVRVIRDAKRAGIHVTAEVTPHHLLLTEDDIPGNNAIYKMNPPLRSTEDREALLEGLLDGTIDCIATDHAPHARDEKAQPMEKAPFGIVGSETAFPLLYTHFVKNGDWTLQQLVDYLTIKPCETFNLEYGTLKENGYADLTIIDLDSEQEIKGEDFLSKADNTPFIGYKVYGNPILTMVEGEVKFEGDK
B2: His-SUMO tagged Staphylococcus aureus dihydroorotase (PyrC) (enzyme)
chain: LEVLFQGPMKLIKNGKVLQNGELQQADILIDGKVIKQIAPAIEPSNGVDIIDAKGHFVSPGFVDVHVHLREPGGEYKETIETGTKAAARGGFTTVCPMPNTRPVPDSVEHFEALQKLIDDNAQVRVLPYASITTRQLGKELVDFPALVKEGAFAFTDDGVGVQTASMMYEGMIEAAKVNKAIVAHCEDNSLIYGGAMHEGKRSKELGIPGIPNICESVQIARDVLLAEAAGCHYHVCHVSTKESVRVIRDAKRAGIHVTAEVTPHHLLLTEDDIPGNNAIYKMNPPLRSTEDREALLEGLLDGTIDCIATDHAPHARDEKAQPMEKAPFGIVGSETAFPLLYTHFVKNGDWTLQQLVDYLTIKPCETFNLEYGTLKENGYADLTIIDLDSEQEIKGEDFLSKADNTPFIGYKVYGNPILTMVEGEVKFEGDK

Biological target: the molecule itself
Assay: SEC

Row | Protein | stoichiometry N
1 | B1 | 2
2 | B2 | 2
